Test results taken from patent EP4725507A1, “POLYPEPTIDE CONJUGATE, PHARMACEUTICAL COMPOSITION CONTAINING POLYPEPTIDE CONJUGATE AND USE THEREOF” (Nanjing Anji Biotechnology Co., Ltd., priority 2023, dated 2025).
Values after ≈ are worked out from the molar mass of the structure shown. Where two headings read alike, the source gives them in different places. Peptide text beside a SMILES is read from it. * marks the point of attachment. Paclitaxel(2'-O-succinyl) = CC(=O)O[C@H]1C(=O)[C@@]2(C)[C@H]([C@H](OC(=O)c3ccccc3)[C@]3(O)C[C@H](OC(=O)[C@H](OC(=O)CCC(=O)*)[C@@H](NC(=O)c4ccccc4)c4ccccc4)C(C)=C1C3(C)C)[C@]1(OC(C)=O)CO[C@@H]1C[C@@H]2O

Key:
[1] = tested on: A549 (non-small cell lung cancer cells); assay: Tumor cell proliferation inhibition (CCK8); format: cell-based; conditions: IC50 of free drug / IC50 of polypeptide conjugate
Text: (§1) Human highly metastatic hepatocellular carcinoma cells HCCLM3, human highly metastatic gastric cancer cells MKN45, human gastric cancer cells BGC-823 and MGC-803, non-small cell lung cancer cells A549, human pancreatic cancer cells ASPC-1, human colon cancer cells LoVo, human ovarian cancer cells A2780, human cervical cancer cells SiHa, human malignant melanoma cells SK-mel-2 and M14, human osteosarcoma cells Saos-2, human bladder transitional cell carcinoma cells T24, human brain glioblastoma cells U87-MG, human lymphoma cells Raji, and human epidermal cancer cells A431 were selected for the experiment. Among them, HCCLM3 cells, MKN45 cells, BGC-823 cells, MGC-803 cells, A431 cells and A549 cells were provided by Nanjing Anji Biotechnology Co., Ltd., and the other cells were provided by Nanjing Ouji Pharmaceutical Technology Service Co., Ltd.
(§2) The aforementioned tumor cells were preserved in a medium containing 10% fetal bovine serum and 1% penicillin-streptomycin, and incubated at 37°C with 5% CO2 and 95% humidity. The aforementioned tumor cells were cultured in T75 flasks with an experimental cell density of 80%. The aforementioned tumor cell lines were mycoplasma-negative.
(§3) Tumor cells in the logarithmic growth phase were taken for the experiment. The cells were digested, counted, and prepared into a cell suspension with a concentration of 1×10^5 cells/mL, which was then inoculated into a 96-well plate (100 µL per well). The 96-well plate was incubated in a 37°C, 5% CO2 incubator for 24 hours. […] After incubating the plate in the incubator for 72 h, the cell morphology of each group was observed under a microscope. Then, 10 µL of CCK8 solution (Nanjing Enjing Biotechnology Co., Ltd.) was added to each well, and the plate was further incubated in the cell incubator for 4 h. After incubation, the absorbance was measured at 450 nm, and the tumor cell proliferation inhibition rate was calculated. The efficiency ratio was the ratio of the IC50 value of the free drug to that of the polypeptide conjugate. Table 1 Tumor cell proliferation inhibition rates of polypeptide conjugates

[2] = tested on: HCCLM3 (human highly metastatic hepatocellular carcinoma cells); assay: Tumor cell proliferation inhibition (CCK8); format: cell-based; conditions: IC50 of free drug / IC50 of polypeptide conjugate
Text: as §1, §2, §3

[3] = Solubility in water (HPLC, saturated solution); format: physicochemical; conditions: for solubility thermodynamic at 15 min: in water (ultrapure), HPLC; for Fold Increase: solubility in water of the conjugate versus the free drug (DOC or PTX)
Description: 25, 50, 100, 200, 300, and 400 µL of the above stock solutions were precisely measured, added into 1 mL volumetric flasks, and diluted to the mark with methanol to obtain a series of standard solutions with concentrations of 25, 50, 100, 200, 300, and 400 µg/mL, respectively. The peak areas of the series of standard solutions were detected by HPLC (mobile phase: 0.065% TFA in water + 0.05% TFA; chromatographic column: YMC-Triart C18; wavelength: 220 nm) to construct a concentration-peak area standard curve, where the abscissa represents concentration and the ordinate represents peak area.
The peak area of the sample was detected by HPLC, and its saturation in water was calculated through the concentration-peak area standard curve. Table 6 Results of detection of solubility of polypeptide conjugates in water

[4] = Metabolism in liver microsomes; format: in vitro ADME; conditions: for k / microsomal CLint at 1 µM / half-life at 1 µM: NADPH, 37°C; for microsomal CLint at 1 µM: read-out: CLint(mic); for half-life at 1 µM: read-out: t½
Description: 1.85 mg of DOC-AI (or 1.81 mg of PTX-AI) was precisely weighed, 1 mL of DMSO was added, dissolved and mixed well to obtain 1 mM stock solution. 1 mM stock solution was diluted with methanol to 100 µM working solution for sample incubation. 12.5 µL of 20 mg/mL liver microsomes (mouse-derived, Shanghai Quanyang Trading Co., Ltd., batch number: MIC255038; rat-derived, Shanghai Quanyang Trading Co., Ltd., batch number: MIC254034; dog-derived, Shanghai Quanyang Trading Co., Ltd., batch number: MIC257015; monkey-derived, Ruide Liver Disease Research (Shanghai) Co., Ltd., batch number: SYXS; human-derived, Shanghai Quanyang Trading Co., Ltd., batch number: 1210097), 432.5 µL of 100 mM PBS, 25 µL of 20 mM NADPH, and 25 µL of 100 mM MgCl2 were added into a 96-well plate, and after mixing, pre-incubated at 37°C for 5 min. 5 µL of 100 µM working solution was added to the 96-well plate to initiate the reaction. At the set time points, 50 µL of the reaction sample was taken and placed in an EP tube containing 100 µL of ice-cold acetonitrile, vortexed for inactivation, and stored at -90°C for testing. […] Table 4 Results of detection of DOC-AI metabolism in liver microsomes

[5] = Human liver microsomes 0.5 mg/mL
[6] = Monkey liver microsomes 0.5 mg/mL
[7] = Mouse liver microsomes 0.5 mg/mL

SMILES | Efficiency Ratios [1] | Efficiency Ratios [2] | solubility thermodynamic at 15 min [3] | Fold Increase [3] | CLint(liver) ([4]; Dog liver microsomes 0.5 mg/mL) | Clearance Rate Level ([4]; Dog liver microsomes 0.5 mg/mL) | Hepatic Extraction Ratio (EH) ([4]; Dog liver microsomes 0.5 mg/mL) | k ([4]; Dog liver microsomes 0.5 mg/mL) | microsomal CLint at 1 µM ([4]; Dog liver microsomes 0.5 mg/mL) | half-life at 1 µM ([4]; Dog liver microsomes 0.5 mg/mL) | CLint(liver) [4, 5] | Clearance Rate Level [4, 5] | Hepatic Extraction Ratio (EH) [4, 5] | k [4, 5] | microsomal CLint at 1 µM [4, 5] | half-life at 1 µM [4, 5] | CLint(liver) [4, 6] | Clearance Rate Level [4, 6] | Hepatic Extraction Ratio (EH) [4, 6] | k [4, 6] | other results
CC(=O)O[C@@]12CO[C@@H]1C[C@H](O)[C@@]1(C)C(=O)[C@H](O)C3=C(C)[C@@H](OC(=O)[C@H](OC(=O)CCC(=O)N[C@@H](CCCNC(=N)N)C(=O)N[C@@H](CO)C(=O)N4CCC[C@H]4C(=O)N[C@@H](Cc4ccc(O)cc4)C(=O)N[C@@H](C)C(=O)N[C@@H](CC(N)=O)C(=O)N[C@@H](CO)C(=O)O)[C@@H](NC(=O)OC(C)(C)C)c4ccccc4)C[C@@](O)([C@@H](OC(=O)c4ccccc4)[C@H]21)C3(C)C [DOC-AI] | 1.39 | 1.63 | 4430 µg/mL (≈ 2630 µM) | 1.62×10^5 | 66.2 mL/min/kg | Medium | 0.682 | 0.0230 | 45.9 µL/min/mg | 30.2 min | 23.4 mL/min/kg | Medium | 0.531 | 0.0130 | 26 µL/min/mg | 53.3 min | 140 mL/min/kg | High | 0.763 | 0.0520 | microsomal CLint at 1 µM [4, 6]: 104 µL/min/mg; half-life at 1 µM [4, 6]: 13.3 min; CLint(liver) [4, 7]: 324 mL/min/kg; Clearance Rate Level [4, 7]: High; Hepatic Extraction Ratio (EH) [4, 7]: 0.783; k [4, 7]: 0.0410; microsomal CLint at 1 µM [4, 7]: 81.9 µL/min/mg; half-life at 1 µM [4, 7]: 16.9 min; CLint(liver) ([4]; Rat liver microsomes 0.5 mg/mL): 108 mL/min/kg; Clearance Rate Level ([4]; Rat liver microsomes 0.5 mg/mL): Medium; Hepatic Extraction Ratio (EH) ([4]; Rat liver microsomes 0.5 mg/mL): 0.662; k ([4]; Rat liver microsomes 0.5 mg/mL): 0.0301; microsomal CLint at 1 µM ([4]; Rat liver microsomes 0.5 mg/mL): 60.1 µL/min/mg; half-life at 1 µM ([4]; Rat liver microsomes 0.5 mg/mL): 23.1 min
CC(=O)O[C@H]1C(=O)[C@@]2(C)[C@H]([C@H](OC(=O)c3ccccc3)[C@]3(O)C[C@H](OC(=O)[C@H](OC(=O)CCC(=O)N[C@@H](CCCNC(=N)N)C(=O)N[C@@H](CO)C(=O)N4CCC[C@H]4C(=O)N[C@@H](Cc4ccc(O)cc4)C(=O)N[C@@H](C)C(=O)N[C@@H](CC(N)=O)C(=O)N[C@@H](CO)C(=O)O)[C@@H](NC(=O)c4ccccc4)c4ccccc4)C(C)=C1C3(C)C)[C@]1(OC(C)=O)CO[C@@H]1C[C@@H]2O [PTX-AI] ({Paclitaxel(2'-O-succinyl)}-RSPYANS-OH) | 2.05 | 3.70 | 5.56 µg/mL (≈ 3.21 µM) | 46.33 | 81.4 mL/min/kg | High | 0.725 | 0.0283 | 56.6 µL/min/mg | 24.5 min | 26.6 mL/min/kg | Medium | 0.562 | 0.0148 | 29.5 µL/min/mg | 46.9 min | 148 mL/min/kg | High | 0.772 | 0.0548 | microsomal CLint at 1 µM [4, 6]: 110 µL/min/mg; half-life at 1 µM [4, 6]: 12.7 min; CLint(liver) [4, 7]: 405 mL/min/kg; Clearance Rate Level [4, 7]: High; Hepatic Extraction Ratio (EH) [4, 7]: 0.818; k [4, 7]: 0.0511; microsomal CLint at 1 µM [4, 7]: 102 µL/min/mg; half-life at 1 µM [4, 7]: 13.6 min; CLint(liver) ([4]; Rat liver microsomes 0.5 mg/mL): 122 mL/min/kg; Clearance Rate Level ([4]; Rat liver microsomes 0.5 mg/mL): Medium; Hepatic Extraction Ratio (EH) ([4]; Rat liver microsomes 0.5 mg/mL): 0.689; k ([4]; Rat liver microsomes 0.5 mg/mL): 0.0339; microsomal CLint at 1 µM ([4]; Rat liver microsomes 0.5 mg/mL): 67.8 µL/min/mg; half-life at 1 µM ([4]; Rat liver microsomes 0.5 mg/mL): 20.4 min
